Assay results from US20200308299A1, “ANTI-GPC-1 ANTIBODY” (National University Corporation Kochi University, priority 2017, published 2020).

Key:
[1] = tested on: TE14 cells; assay: ADC assay combining anti-GPC-1 antibody and MMAF binding secondary antibody, TE14 cells; format: cell-based
Protocol: FIG. 1 depicts a schematic diagram of an ADC used in an assay. This Example used a secondary antibody (MORADEC) to the anti-GPC1 antibody made in Example 1, to which an anticancer agent (MMAF) was bound via a linker.
2000 TE14 cells were added to a 96-well plate at 80 μl. The cells were cultured overnight at 37° C. in a 5% CO2 incubator. The next day, 10 μl of an anticancer agent bound secondary antibody and 10 μl of a primary antibody concentrated 10-fold relative to the final concentration was added to each well, so that the total amount was 100 μl. The cells were cultured for 6 days at 37° C. in a 5% CO2 incubator. The cell viability was measured by using a CellTiter-Glo Luminescent Cell Viability Assay reagent to detect the amount of ATP. RPMI1640+10% FBS+1% PS was used as the medium. The final concentrations of the primary antibody were 0, 0.004, 0.0156, 0.0625, 0.25, and 1.0 nM. 2 μg/ml of Fab-aMFc-CL-MMAF (model number: AM202AF-50, Moradec) was used as the secondary antibody.

[2] = tested on: TE8, HeLa, ME180, BxPC3, and T3M4 cell strains; assay: Internalization assay on GPC1 ADC (01a033), various GPC1 positive cell strains; format: cell-based; conditions: esophageal, pancreatic and cervical cancer derived cell strains, 37° C.
Protocol: (§1) Detection was performed on cells treated with GPC1 ADC (01a033) MMAF with anti-GPC1 mAb (biotin-labeled 02b006) and PE-labeled streptavidin.
(§2) TE8, HeLa, ME180, BxPC3, and T3M4 cell strains were detached and collected from a 10 cm plate using 0.02% EDTA. Cells were suspended in RPMI1640+10% FBS+100 U/ml penicillin+100 μg/ml streptomycin, and two 1.5 ml tubes were created at 1.0×10^6 cells/0.9 ml. To lower the internalization activity, the tubes were left standing on ice for 1 hour. 1 mg/ml of GPC1 ADC (01a033) MMAF was diluted to 24 μg/mL (160 nM) with ice-cooled RPMI1640+10% FBS+100 U/ml penicillin+100 μg/ml streptomycin. 100 μl of the ADC was added and suspended in the cell suspension and incubated on ice for 30 minutes to stain the antigens on the cell surface. After 30 minutes, the cell suspension was dispensed into 7 tubes each at 100 μl each. The cell suspension was separated into 4° C. incubation group and 37° C. incubation group in 14 tubes. The incubation times were 0.0 h, 1 h, 2 h, 3 h, 4 h, 6 h, 12 h, and 24 h. After reaching the incubation time, the cells were centrifuged at 1500 rpm at 4° C. for 5 minutes to remove the supernatant. The cells were washed with 100 μl of ice cooled PBS+0.2% BSA and subjected to centrifugation to wash the cells. Washing operation was performed three times in total. […]

[3] = tested on: TE8 cells; assay: ADC assay combining anti-GPC-1 antibody and MMAF binding secondary antibody, TE8 cells; format: cell-based; conditions: primary antibody plus MMAF secondary antibody
[4] = Safety test on anti-GPC1 antibody 01a033 using mice; format: in vivo, mouse; conditions: 1 mg/body ip, C57BL/6J mice, day 7
Protocol: The following items were evaluated on day 7.
Blood collection endpoints: WBC, RBC, Hb, Plt, T-Bil, ALT, ALP, Amy, BUN, Cr, Ca, P, TP, Alb, Na, K, Glob, and Glu, automatic blood cell counter: VetScan HMII, animal biochemical blood analyzer: VetScan VS2.

[5] = tested on: BxPC3 cell strain; assay: In vivo efficacy test on GPC1 ADC using pancreatic cancer cell strain BxPC3 in SCID mice; parameters: species or system mouse
Protocol: Specifically, 5.0×10^6 cells of the BxPC3 cell strain were subcutaneously grafted into female SCID mice. […] The tumor volume and body weight were measured on day 0, day 4, day 8, day 12, day 16, day 20, day 24, day 28, day 32, and day 36.
After subcutaneous tumorigenesis of BxPC3, (1) PBS, (2) control ADC at 10 mg/kg, and (3) GPC1-ADC at 1 mg/kg, 3 mg/kg, and 10 mg/kg were administered once into the tail vein. The tumor was extracted after 24 hours. After deparaffinization of a section of a paraffin embedded tissue, the slice was dehydrated with alcohol.
Immunohistochemical staining on Phospho-Histon H3 (Ser10) was performed using an anti-Phospho-Histon H3 (Ser10) antibody (Cell Signaling Technology: #9701) and ChemMate Envision kit HRP 500T (Dako: K5007).

[6] = tested on: TE8 cells; assay: Internalization assay on GPC1 ADC (01a033), TE8 cells; format: cell-based; conditions: 0-24 h
Protocol: as §1, §2

[7] = primary antibody plus MMAF secondary antibody

Molecule | ADC activity ([1]; primary antibody plus Fab-aMFc-CL-MMAF secondary antibody 2 μg/ml, 6 days) | EC50 values against TE14 cells [1, 7] | antitumor effect on TE14 [1, 7] | internalization activity [2] | antitumor effect on TE8 [3] | toxicity (blood cell count, biochemical blood analysis) [4] | tumor volume ([5]; 3 mg/kg iv day 0, 4, 8, 12) | tumor volume ([5]; 10 mg/kg iv day 0, 4, 8, 12) | change in the body weight ([5]; any dosage tested (1, 3, 10 mg/kg)) | antitumor effect (tumor volume, tumor weight day 36) ([5]; iv day 0, 4, 8, 12, anti-GPC1 ADC 1, 3, 10 mg/kg (all groups), control ADC 10 mg/kg) | G2/M phase arrest in tumor tissue (Phospho-Histon H3 (Ser10) staining) ([5]; single tail vein dose 1, 3, 10 mg/kg, tumor extracted after 24 hours) | residual amount of Glypican-1 on the cell surface ([6]; TE8, incubation at 4° C.) | Glypican-1 remaining on the cell surface ([6]; TE8, incubation at 37° C.)
clone 01a033 (antibody) heavy: QVQLKQSGPELVKPGASVKISCKASGYSFTGYYMHWVKQSPEKSLEWIGEINPSTGDTTYNQKFKAKATLTVDKSSSTAYMQLKSLTSEDSAVYYCAREKRDDGVFAYWGQGTLVTVSSAKTTAPSVYPLAPVCGDTTGSSVTLGCLVKGYFPEPVTLTWNSGSLSSGVHTFPAVLQSDLYTLSSSVTVTSSTWPSQSITCNVAHPASSTKVDKKIEPRGPTIKPCPPCKCPAPNLLGGPSVFIFPPKIKDVLMISLSPIVTCVVVDVSEDDPDVQISWFVNNVEVHTAQTQTHREDYNSTLRVVSALPIQHQDWMSGKEFKCKVNNKDLPAPIERTISKPKGSVRAPQVYVLPPPEEEMTKKQVTLTCMVTDFMPEDIYVEWTNNGKTELNYKNTEPVLDSDGSYFMYSKLRVEKKNWVERNSYSCSVVHEGLHNHHTTKSFSRTPGK light: DIVMSQSPKSMSMSVGERVALSCKASENVGTYVSWYQQKPEQSPKLLIYGASNRYTGVPDRFTGSGSATDFTLTISSVQAEDLADYYCGQSYSYPLTFGAGTKLELKRADAAPTVSIFPPSSEQLTSGGASVVCFLNNFYPKDINVKWKIDGSERQNGVLNSWTDQDSKDSTYSMSSTLTLTKDEYERHNSYTCEATHKTSTSPIVKSFNRNEC | highest ADC activity | excellent EC50 values | particularly potent antitumor effect | high internalization activity | particularly potent antitumor effect | Toxicity was not found | – | – | – | – | – | – | –
GPC1 ADC (conjugate) heavy: QVQLKQSGPELVKPGASVKISCKASGYSFTGYYMHWVKQSPEKSLEWIGEINPSTGDTTYNQKFKAKATLTVDKSSSTAYMQLKSLTSEDSAVYYCAREKRDDGVFAYWGQGTLVTVSSAKTTAPSVYPLAPVCGDTTGSSVTLGCLVKGYFPEPVTLTWNSGSLSSGVHTFPAVLQSDLYTLSSSVTVTSSTWPSQSITCNVAHPASSTKVDKKIEPRGPTIKPCPPCKCPAPNLLGGPSVFIFPPKIKDVLMISLSPIVTCVVVDVSEDDPDVQISWFVNNVEVHTAQTQTHREDYNSTLRVVSALPIQHQDWMSGKEFKCKVNNKDLPAPIERTISKPKGSVRAPQVYVLPPPEEEMTKKQVTLTCMVTDFMPEDIYVEWTNNGKTELNYKNTEPVLDSDGSYFMYSKLRVEKKNWVERNSYSCSVVHEGLHNHHTTKSFSRTPGK light: DIVMSQSPKSMSMSVGERVALSCKASENVGTYVSWYQQKPEQSPKLLIYGASNRYTGVPDRFTGSGSATDFTLTISSVQAEDLADYYCGQSYSYPLTFGAGTKLELKRADAAPTVSIFPPSSEQLTSGGASVVCFLNNFYPKDINVKWKIDGSERQNGVLNSWTDQDSKDSTYSMSSTLTLTKDEYERHNSYTCEATHKTSTSPIVKSFNRNEC | – | – | – | – | – | – | tumor volume was significantly reduced | tumor volume was significantly reduced | significant change in the body weight was not observed | significant antitumor effect | resulted in G2/M phase arrest | hardly changed | decreases with the passage of incubation time
